Key:
Experiment in all cases: ELISA, coated CR6261, P. pastoris medium
Conditions in all cases: remark: other sources report otherwise
[1] = target: 11F4
[2] = target: 26H1
[3] = target: 27B10
[4] = target: 29C2
[5] = target: 2C4
[6] = target: 36D6
[7] = target: 36H2
[8] = target: 48B10
[9] = target: 51G10
[10] = target: 54H4
[11] = target: 55G7
[12] = target: 56D2
[13] = target: 57B8
[14] = target: 60A2
[15] = target: 61A9
[16] = target: 63D3
[17] = target: 67C10
[18] = target: 67C11
[19] = target: 69D2
[20] = target: 6A1
[21] = target: 6E12
[22] = target: 71A4
[23] = target: 71C4
[24] = target: 71E7
[25] = target: 72D4
[26] = target: 75G5
[27] = target: 75H8
[28] = target: 76A10
[29] = target: 79C2
[30] = target: 79D5
[31] = target: 79F8
[32] = target: 7A7
[33] = target: 7B6
[34] = target: 80F10
[35] = target: 81F11
[36] = target: 84B8
[37] = target: 84D3
[38] = target: 850
[39] = target: 86B4
[40] = target: 86G2
[41] = target: 86H9
[42] = target: 87H5
[43] = target: 88C5
[44] = target: 89F11
[45] = target: 91C4
[46] = target: 96A7
[47] = target: 96G5
[48] = target: 96H8

B1: CR6261 (antibody, V domains shown)
VH: EVQLVESGAEVKKPGSSVKVSCKASGGPFRSYAISWVRQAPGQGPEWMGGIIPIFGTTKYAPKFQGRVTITADDFAGTVYMELSSLRSEDTAMYYCAKHMGYQVRETMDVWGKGTTVTVSS
VL: QSVLTQPPSVSAAPGQKVTISCSGSSSNIGNDYVSWYQQLPGTAPKLLIYDNNKRPSGIPDRFSGSKSGTSATLGITGLQTGDEANYYCATWDRRPTAYVVFGGGTKLTVLG
CR6261 binding signal [1]: 151000 | CR6261 binding signal [2]: 79700 | CR6261 binding signal [3]: 187000 | CR6261 binding signal [4]: 178000 | CR6261 binding signal [5]: 258000 | CR6261 binding signal [6]: 71300 | CR6261 binding signal [7]: 171000 | CR6261 binding signal [8]: 103000 | CR6261 binding signal [9]: 215000 | CR6261 binding signal [10]: 292000 | CR6261 binding signal [11]: 616000 | CR6261 binding signal [12]: 146000 | CR6261 binding signal [13]: 58400 | CR6261 binding signal [14]: 92700 | CR6261 binding signal [15]: 383000 | CR6261 binding signal [16]: 146000 | CR6261 binding signal [17]: 306000 | CR6261 binding signal [18]: 209000 | CR6261 binding signal [19]: 446000 | CR6261 binding signal [20]: 300000 | CR6261 binding signal [21]: 373000 | CR6261 binding signal [22]: 1.05e+06 | CR6261 binding signal [23]: 1.35e+06 | CR6261 binding signal [24]: 203000 | CR6261 binding signal [25]: 330000 | CR6261 binding signal [26]: 1.01e+06 | CR6261 binding signal [27]: 103000 | CR6261 binding signal [28]: 137000 | CR6261 binding signal [29]: 364000 | CR6261 binding signal [30]: 703000 | CR6261 binding signal [31]: 185000 | CR6261 binding signal [32]: 988000 | CR6261 binding signal [33]: 60400 | CR6261 binding signal [34]: 90900 | CR6261 binding signal [35]: 318000 | CR6261 binding signal [36]: 582000 | CR6261 binding signal [37]: 84400 | CR6261 binding signal [38]: 196000 | CR6261 binding signal [39]: 1.08e+06 | CR6261 binding signal [40]: 69700 | CR6261 binding signal [41]: 457000 | CR6261 binding signal [42]: 78100 | CR6261 binding signal [43]: 471000 | CR6261 binding signal [44]: 84800 | CR6261 binding signal [45]: 1.16e+06 | CR6261 binding signal [46]: 83300 | CR6261 binding signal [47]: 108000 | CR6261 binding signal [48]: 206000

— patent US20170209564A1
